{"source": "the Immune Epitope Database (IEDB)", "key": {"HLA-A*23:01": {"molecular_target": "HLA-A*23:01", "assay": "IEDB peptide-MHC binding, purified MHC/competitive/radioactivity; filed as Kd, often an IC50 or EC50 that approximates it; ≥ and ≤ were set here for values at or beyond the usual limits of such assays"}, "HLA-A*29:02": {"molecular_target": "HLA-A*29:02", "assay": "IEDB peptide-MHC binding, purified MHC/competitive/radioactivity; filed as Kd, often an IC50 or EC50 that approximates it; ≥ and ≤ were set here for values at or beyond the usual limits of such assays"}, "HLA-A*24:02": {"molecular_target": "HLA-A*24:02", "assay": "IEDB peptide-MHC binding, purified MHC/competitive/radioactivity; filed as Kd, often an IC50 or EC50 that approximates it; ≥ and ≤ were set here for values at or beyond the usual limits of such assays"}, "HLA-B*08:01": {"molecular_target": "HLA-B*08:01", "assay": "IEDB peptide-MHC binding, purified MHC/competitive/radioactivity; filed as Kd, often an IC50 or EC50 that approximates it; ≥ and ≤ were set here for values at or beyond the usual limits of such assays", "settings": "source organism: Vaccinia virus WR"}, "HLA-A*68:02": {"molecular_target": "HLA-A*68:02", "assay": "IEDB peptide-MHC binding, purified MHC/competitive/radioactivity; filed as Kd, often an IC50 or EC50 that approximates it; ≥ and ≤ were set here for values at or beyond the usual limits of such assays"}, "HLA-A*02:01 [1]": {"molecular_target": "HLA-A*02:01", "assay": "IEDB peptide-MHC binding, purified MHC/competitive/fluorescence; filed as Kd, often an IC50 or EC50 that approximates it; ≥ and ≤ were set here for values at or beyond the usual limits of such assays", "settings": "source organism: Hepatitis C virus subtype 1b"}, "HLA-A*02:01 [2]": {"molecular_target": "HLA-A*02:01", "assay": "IEDB peptide-MHC binding, purified MHC/competitive/fluorescence; ≥ and ≤ were set here for values at or beyond the usual limits of such assays", "settings": "source organism: Hepacivirus hominis"}, "HLA-A*30:02": {"molecular_target": "HLA-A*30:02", "assay": "IEDB peptide-MHC binding, purified MHC/competitive/radioactivity; filed as Kd, often an IC50 or EC50 that approximates it; ≥ and ≤ were set here for values at or beyond the usual limits of such assays"}, "HLA-A*26:01": {"molecular_target": "HLA-A*26:01", "assay": "IEDB peptide-MHC binding, purified MHC/competitive/radioactivity; filed as Kd, often an IC50 or EC50 that approximates it; ≥ and ≤ were set here for values at or beyond the usual limits of such assays"}, "HLA-A*01:01": {"molecular_target": "HLA-A*01:01", "assay": "IEDB peptide-MHC binding, purified MHC/competitive/radioactivity; filed as Kd, often an IC50 or EC50 that approximates it; ≥ and ≤ were set here for values at or beyond the usual limits of such assays"}, "HLA-B*35:01": {"molecular_target": "HLA-B*35:01", "assay": "IEDB peptide-MHC binding, purified MHC/competitive/radioactivity; filed as Kd, often an IC50 or EC50 that approximates it; ≥ and ≤ were set here for values at or beyond the usual limits of such assays"}, "HLA-B*53:01": {"molecular_target": "HLA-B*53:01", "assay": "IEDB peptide-MHC binding, purified MHC/competitive/radioactivity; filed as Kd, often an IC50 or EC50 that approximates it; ≥ and ≤ were set here for values at or beyond the usual limits of such assays"}, "HLA-B*51:01": {"molecular_target": "HLA-B*51:01", "assay": "IEDB peptide-MHC binding, purified MHC/competitive/radioactivity; filed as Kd, often an IC50 or EC50 that approximates it; ≥ and ≤ were set here for values at or beyond the usual limits of such assays", "settings": "source organism: Dengue virus 1 Brazil/97-11/1997"}, "[3]": {"settings": "source organism: Mammarenavirus caliense"}, "[4]": {"settings": "source organism: Dengue virus 3 Martinique/1243/1999"}, "[5]": {"settings": "source organism: SARS coronavirus Tor2"}, "[6]": {"settings": "source organism: Dengue virus 2 Jamaica/1409/1983"}, "[7]": {"settings": "source organism: Lymphocytic choriomeningitis virus (strain Armstrong)"}}}
{"sequence": "YQPDTGNYI", "values": [{"measurement": "Kd", "setting": "HLA-A*23:01; [3]", "result": 5790, "unit": "nM"}, {"measurement": "Kd", "setting": "HLA-A*29:02; [3]", "result": "≥ 78900", "unit": "nM"}, {"measurement": "Kd", "setting": "HLA-A*24:02; [3]", "result": 5260, "unit": "nM"}]}
{"sequence": "ELREIFRRL", "values": [{"measurement": "Kd", "setting": "HLA-B*08:01", "result": 26.5, "unit": "nM"}]}
{"sequence": "LTMKNKAWMV", "values": [{"measurement": "Kd", "setting": "HLA-A*68:02; [4]", "result": 16.7, "unit": "nM"}]}
{"sequence": "LLCPAGHAV", "values": [{"measurement": "Kd", "setting": "HLA-A*02:01 [1]", "result": 12.4, "unit": "nM"}, {"measurement": "IC50", "setting": "HLA-A*02:01 [2]", "result": 35400, "unit": "nM"}]}
{"sequence": "LDESFLGRY", "values": [{"measurement": "Kd", "setting": "HLA-A*30:02; [5]", "result": 163, "unit": "nM"}, {"measurement": "Kd", "setting": "HLA-A*26:01; [5]", "result": 12700, "unit": "nM"}, {"measurement": "Kd", "setting": "HLA-A*23:01; [5]", "result": "≥ 77800", "unit": "nM"}, {"measurement": "Kd", "setting": "HLA-A*29:02; [5]", "result": 1540, "unit": "nM"}, {"measurement": "Kd", "setting": "HLA-A*01:01; [5]", "result": 2610, "unit": "nM"}, {"measurement": "Kd", "setting": "HLA-A*24:02; [5]", "result": "≥ 77600", "unit": "nM"}]}
{"sequence": "VYKVYYGNAL", "values": [{"measurement": "Kd", "setting": "HLA-A*30:02; [5]", "result": 5980, "unit": "nM"}, {"measurement": "Kd", "setting": "HLA-A*26:01; [5]", "result": 11700, "unit": "nM"}, {"measurement": "Kd", "setting": "HLA-A*23:01; [5]", "result": 746, "unit": "nM"}, {"measurement": "Kd", "setting": "HLA-A*29:02; [5]", "result": 7770, "unit": "nM"}, {"measurement": "Kd", "setting": "HLA-A*01:01; [5]", "result": "≥ 37200", "unit": "nM"}, {"measurement": "Kd", "setting": "HLA-A*24:02; [5]", "result": 203, "unit": "nM"}]}
{"sequence": "TPEGIIPSM", "values": [{"measurement": "Kd", "setting": "HLA-B*35:01; [6]", "result": 7.57, "unit": "nM"}, {"measurement": "Kd", "setting": "HLA-B*53:01; [6]", "result": 252, "unit": "nM"}]}
{"sequence": "VPLLAIGCY", "values": [{"measurement": "Kd", "setting": "HLA-B*35:01; [6]", "result": 168, "unit": "nM"}]}
{"sequence": "MAMVLSIVS", "values": [{"measurement": "Kd", "setting": "HLA-B*35:01; source organism: Dengue virus 1 Singapore/S275/1990", "result": 659, "unit": "nM"}]}
{"sequence": "TVFFVLMMLV", "values": [{"measurement": "Kd", "setting": "HLA-A*68:02; source organism: Dengue virus 4 Philippines/H241/1956", "result": 38.7, "unit": "nM"}]}
{"sequence": "VFSAVGNICY", "values": [{"measurement": "Kd", "setting": "HLA-A*30:02; [5]", "result": 13.8, "unit": "nM"}, {"measurement": "Kd", "setting": "HLA-A*26:01; [5]", "result": 1280, "unit": "nM"}, {"measurement": "Kd", "setting": "HLA-A*23:01; [5]", "result": 15400, "unit": "nM"}, {"measurement": "Kd", "setting": "HLA-A*29:02; [5]", "result": 28.3, "unit": "nM"}, {"measurement": "Kd", "setting": "HLA-A*01:01; [5]", "result": 60.5, "unit": "nM"}, {"measurement": "Kd", "setting": "HLA-A*24:02; [5]", "result": 7130, "unit": "nM"}]}
{"sequence": "DKRMKSLAM", "values": [{"measurement": "Kd", "setting": "HLA-B*08:01", "result": 9.85, "unit": "nM"}]}
{"sequence": "VMPVHTLSI", "values": [{"measurement": "Kd", "setting": "HLA-A*30:02; [5]", "result": 4570, "unit": "nM"}, {"measurement": "Kd", "setting": "HLA-A*26:01; [5]", "result": "≥ 20700", "unit": "nM"}, {"measurement": "Kd", "setting": "HLA-A*23:01; [5]", "result": 109, "unit": "nM"}, {"measurement": "Kd", "setting": "HLA-A*29:02; [5]", "result": 141, "unit": "nM"}, {"measurement": "Kd", "setting": "HLA-A*01:01; [5]", "result": "≥ 78100", "unit": "nM"}, {"measurement": "Kd", "setting": "HLA-A*24:02; [5]", "result": 47.2, "unit": "nM"}]}
{"sequence": "FPGKTVWFV", "values": [{"measurement": "Kd", "setting": "HLA-B*53:01; source organism: Dengue virus 1 Brazil/97-11/1997", "result": 86.1, "unit": "nM"}, {"measurement": "Kd", "setting": "HLA-B*51:01", "result": 6360, "unit": "nM"}]}
{"sequence": "SLIPRLVDF", "values": [{"measurement": "Kd", "setting": "HLA-B*08:01", "result": 12.7, "unit": "nM"}]}
{"sequence": "QFIHFYREPV", "values": [{"measurement": "Kd", "setting": "HLA-A*30:02; [7]", "result": 5150, "unit": "nM"}, {"measurement": "Kd", "setting": "HLA-A*26:01; [7]", "result": "≥ 69700", "unit": "nM"}, {"measurement": "Kd", "setting": "HLA-A*23:01; [7]", "result": "≥ 69500", "unit": "nM"}, {"measurement": "Kd", "setting": "HLA-A*29:02; [7]", "result": "≥ 39400", "unit": "nM"}, {"measurement": "Kd", "setting": "HLA-A*01:01; [7]", "result": "≥ 41300", "unit": "nM"}, {"measurement": "Kd", "setting": "HLA-A*24:02; [7]", "result": "≥ 70300", "unit": "nM"}]}
{"sequence": "SCKVKIVPL", "values": [{"measurement": "Kd", "setting": "HLA-B*08:01", "result": 1430, "unit": "nM"}]}
{"sequence": "MLVTPSMTM", "values": [{"measurement": "Kd", "setting": "HLA-B*35:01; [4]", "result": 3840, "unit": "nM"}]}
{"sequence": "ALRPSTSRSL", "values": [{"measurement": "Kd", "setting": "HLA-A*68:02; source organism: Homo sapiens", "result": "≥ 60000", "unit": "nM"}]}
{"sequence": "ILEDQNCKL", "values": [{"measurement": "Kd", "setting": "HLA-A*68:02; source organism: Homo sapiens", "result": "≥ 60000", "unit": "nM"}]}
{"sequence": "EPGQLKLNWF", "values": [{"measurement": "Kd", "setting": "HLA-B*35:01; [6]", "result": "≥ 42000", "unit": "nM"}, {"measurement": "Kd", "setting": "HLA-B*53:01; [6]", "result": 593, "unit": "nM"}]}
